In the RNAGym collection of RNA variant scans (doi:10.1073/pnas.2313332121):

B1: TPR t1 (parent)
chain: GACCAAUCUGCCCUCAGAGCUCGAGAACAUCUUCGGAUGCAGAGGAGGCAGGCUUCGGUGGCGCGAUAGCGCCAACGUCCUCAACCUCCAAUGCAUCCCACCACAUGAUGAUGCCUGAAGAGCCUUGGUUUUUUG

Variants of: B1
Test: polymerase ribozyme fitness, log enrichment relative to wild type (log ratio); higher = more active; in vitro selection for triplet polymerase activity
In short: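 Mutant libraries were PCR-built and transcribed for each subunit of a heterodimeric triplet polymerase ribozyme and selected for one round in triplicate at −7 °C, frozen, before gel excision of extended constructs and streptavidin-bead capture. Input and output libraries were Illumina-sequenced, keeping genotypes with ≥10 input reads and ≥1 read per output. Fitness is a logarithmic ratio of genotype to wild-type enrichment, in base 2, using inverse-variance-weighted replicate averages.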

| Variant | polymerase ribozyme fitness (log ratio) |
| --- | --- |
| G47U C101U C114U A118U | -5.66 |
| G47U C104A U133G | -4.19 |
| G47U C104U | -1.55 |
| G47U C114G | -4.11 |
| G47U C115U | -2.5 |
| G47U G48A | 0.823 |
| G47U G48A G63C A119G U130C | -1 |
| G47U G48U C56A C73A A118G | -3.88 |
| G47U G48U G63U A111G | -4.04 |
| G47U G51A A121G G128U | -3.97 |
| G47U G52A | -2.71 |
| G47U G52A A83C | -2.36 |
| G47U G57A C73A C85G U106A U133A | -5.19 |
| G47U G57A U106G U132A | -4.76 |
| G47U G57U G93U | -3.51 |
| G47U G58C | -0.433 |
| G47U G58U G120U | -1.02 |
| G47U G63A U116A | -4.47 |
| G47U G69C | -3.62 |
| G47U G71A U112C | -0.298 |
| G47U G71U A119U C123A | -2.79 |
| G47U G120U | -0.0894 |
| G47U G127C U130C | -2.06 |
| G47U G135A | -2.09 |

| Variant | polymerase ribozyme fitness (log ratio) |
| --- | --- |
| G47U U55C C56A C73G | -4.04 |
| G47U U78C | -1.44 |
| G47U U87G U129A | -4.44 |
| G47U U126G | -3.77 |
| G47U U131G | -1.85 |
| G48A A83U C102A | -2.24 |
| G48A A100U | -1.19 |
| G48A C49U G61U U78A G122A U126A | -3.77 |
| G48A C56G | -0.92 |
| G48A C62U | -0.525 |
| G48A C62U C115U | -3.7 |
| G48A C64A | -6.92 |
| G48A C64U | 0.0683 |
| G48A C64U A111G | -0.284 |
| G48A C64U C89G C114U U126G | -6.43 |
| G48A C70A | -2.36 |
| G48A C70A C86G G107C G110U | -5.84 |
| G48A C72U U81C C102A A121C | -0.882 |
| G48A C73A G127C | -1.15 |
| G48A C73U C85A | -1.26 |
| G48A C76U C85G C89A U96C | -5.66 |
| G48A C80A | -2.53 |
| G48A C82U | -0.23 |
| G48A C85A | -0.739 |

| Variant | polymerase ribozyme fitness (log ratio) |
| --- | --- |
| G48A C88U U96A | -1.74 |
| G48A C101U | -2.29 |
| G48A G52A | -0.371 |
| G48A G52A C101G | -2.71 |
| G48A G61C | -1.66 |
| G48A G61C C88A C97U C115G A119G U126A | -3.38 |
| G48A G61U C64U A84U | -3.63 |
| G48A G63A A75G | -1.21 |
| G48A G63A U116C G122A | -5.7 |
| G48A G69U C72U U126G G128A U132A | -2.53 |
| G48A G69U C123U | 0.885 |
| G48A G71C G117A | -1.66 |
| G48A G71C U96C | -1.75 |
| G48A G93A U96C C99U | -4.9 |
| G48A G110A | -1.6 |
| G48A G117C | -3.17 |
| G48A G128U | -2.69 |
| G48A U54A C62U C82U C85A C104A | -2.99 |
| G48A U54G G110C | -4.76 |
| G48A U67C | -3.66 |
| G48A U87A | -0.877 |
| G48A U106A | -0.42 |
| G48A U112A U125G G127C | -1.12 |
| G48A U112C U133G | 0.699 |

| Variant | polymerase ribozyme fitness (log ratio) |
| --- | --- |
| G48A U130C | -0.486 |
| G48A U130G | -1.37 |
| G48A U133G | -1.38 |
| G48C A50G C102A | -3.21 |
| G48C A74U | -0.843 |
| G48C A83C A90C G110A | -3.46 |
| G48C A83U A111C A118C | -0.0367 |
| G48C A84G C85G C115A G127U | -4.98 |
| G48C A100U | -1.76 |
| G48C C49A | -2.13 |
| G48C C49A U78G U81G | -1.87 |
| G48C C49G | -0.655 |
| G48C C53A C124U G128C | -3.02 |
| G48C C56G C62U U78C C115U C124A | -2.1 |
| G48C C56G G110U | -1.56 |
| G48C C62U C64U C97U A100U C123A | -2.01 |
| G48C C64U | -1.12 |
| G48C C72G U78G U92A C124G | -2.22 |
| G48C C73U | -0.559 |
| G48C C79U G128C | -4.29 |
| G48C C82A A84C | -1.03 |
| G48C C86U C115A | -1.07 |
| G48C C101U U112C | 0.0907 |
| G48C C104A C124A | -0.812 |

| Variant | polymerase ribozyme fitness (log ratio) |
| --- | --- |
| G48C C123U | -0.702 |
| G48C G51C G57U | -2.77 |
| G48C G51U C53U | -4.86 |
| G48C G57A | -0.626 |
| G48C G60C G110A | -2.42 |
| G48C G60U C86A C94U U106C G117C | -6.53 |
| G48C G61U | 0.754 |
| G48C G69U U130C | -0.222 |
| G48C G71C C123G | -0.00854 |
| G48C G93A A105C | -4.64 |
| G48C G93U U96A A111G | -5.62 |
| G48C G128C | -2.75 |
| G48C U67C G71A A95G U106A | -8.09 |
| G48C U92A C104U | -3.44 |
| G48U A50U A68G C89G U106A U116C C124U | -5.48 |
| G48U A50U G60A C86G | -2.89 |
| G48U A50U U78C A90U C123A | -2.26 |
| G48U A84C C115A | -1.64 |
| G48U A90G U112A | -2.03 |
| G48U A91U C123U G127U | -2.98 |
| G48U A100C A105C C123U | -4.99 |
| G48U A105C | -2.86 |
| G48U A105U | -2.27 |
| G48U A111C | -0.214 |

| Variant | polymerase ribozyme fitness (log ratio) |
| --- | --- |
| G48U A111U U125G | -4.47 |
| G48U A118G U125G | -2.75 |
| G48U C49A C115U U133C | -2.27 |
| G48U C53A C62U C82U U106A A108G | -1.03 |
| G48U C53G G69U | -0.128 |
| G48U C56A A105G A111G | -5.01 |
| G48U C56A C114G G127C | -5.92 |
| G48U C56A U92A | -4.35 |
| G48U C56G C72A C94A G110C | -5.78 |
| G48U C56G C101U C114G | -4.75 |
| G48U C64A C86G A111G G135A | -6.11 |
| G48U C70U C114A | -2.21 |
| G48U C72G G122A | -2.3 |
| G48U C72U | -1.19 |
| G48U C72U C85A U92C G93C C101U | -3.44 |
| G48U C73U U109A G110U A119U | -4.88 |
| G48U C76G G110A G127A | -2.63 |
| G48U C88G G113C A121C | -3.7 |
| G48U C94G | -1.44 |
| G48U C94U | -1.2 |
| G48U G57A | -1.01 |
| G48U G57A G58A | -0.738 |
| G48U G57C U130C | 0.0456 |
| G48U G57U A75G A83C G117A | -4.82 |

| Variant | polymerase ribozyme fitness (log ratio) |
| --- | --- |
| G48U G57U C85A C114G U129A | -6.62 |
| G48U G57U G63A U96G A100C C102G G120C | -6.73 |
| G48U G58A G122A | -1.21 |
| G48U G60C C70U U78G | -5.9 |
| G48U G60U G61A A83G U129G | -3.05 |
| G48U G63U C86U | -1.38 |
| G48U G110A C124G U133A | -1.53 |
| G48U G110C | -4.65 |
| G48U U54G | -0.42 |
| G48U U55C | -1.53 |
| G48U U59A G60U G122A C123A | -1.51 |
| G48U U59A U78G U116A | -3.29 |
| G48U U59C C86G | -2.19 |
| G48U U59G C72U C94G | -1.86 |
| G48U U78C | -1.27 |
| G48U U92G | -3.54 |
| G48U U112A | 0.632 |
| C49A A66G C73U | -1.61 |
| C49A A68G A90U | -6.08 |
| C49A A74C C94U U116A | -3.09 |
| C49A A84C C99U | -3.55 |
| C49A A91U A95G A100C | -6.08 |
| C49A A105C | -2.48 |
